Experiment [1] addresses T1, EGFRvIII expressed on cells (CHO^EGFRvIII, F98^EGFRvIII) (UniProt P00533 25-1210).
T1 construct: whole, on cells; the vIII deletion must be applied; also called deletion mutant EGFRvIII
The experiment is described as follows: cell-based or functional assay.

Experiment [2] addresses EGFRvIII-Fc fusion antigen (human, UniProt P00533 25-645). The experiment is described as follows: SPR Biacore T200, EGFRvIII-Fc captured via anti-hu Fc, scFv analyte, 1:1 model.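 Note: Multi-cycle kinetics on a CM5 chip in HBS-P+ running buffer, 180 s scFv association then 540 s dissociation, with blank flow cell signals subtracted.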 Background: In SPR one partner is held on a chip, and binding of the other changes the refractive index at the surface.
Description: Anti-hu Fc IgG CM5-chip was prepared by covalent amine coupling by using the Amine-Coupling-Kit (GE), according to the instructions of the manufacturer. The IgG was diluted in the provided immobilization buffer (10 mM sodium acetate, pH 5.0) to a concentration of 25 μg/ml. For the coupling procedure, the predefined method “Amine” of the Biacore T200 control software was applied. A target level between 5000-10000 RU for all 4 flow cells was reached. The surface of the chip was activated with EDC/NHS before injecting the recombinant protein solutions. Free binding sites on the surface were blocked with ethanolamine. 1×HBS-P+ was selected as a running buffer for the entire coupling procedure.
Flowcell 1 and 3 were blanks. 1×HBS-P+ was used as running buffer for the entire procedure. The scFv antibodies were injected at a flow rate of 30 μL/min for 180 sec over all four flowcells. Signals measured in the flowcell 1 without captured antigen were subtracted from signals in the flowcell 2 to correct the binding curves for background binding. Signals measured in the flowcell 3 without captured antigen were subtracted from signals in the flowcell 4 to correct the binding curves for background binding. After 540 sec dissociation time the chip was regenerated as described below.
The Kinetics of scFv antibodies were determined in MCK (Multi Cycle Kinetic) measurements. For estimation of apparent binding affinities the binding curves were evaluated using the “Kinetic” method included in the Biacore evaluation software. By this method the binding curves are globally fitted by the software using the “Langmuir 1:1 interaction model”.
In experiment [3] the target is T1, EGFRvIII expressed on cells …. The experiment is described as follows: flow cytometry on F98^EGFRvIII cells; scFv detected with anti-His followed by FITC-conj. goat anti-mouse IgG, mean fluorescence intensity. In general terms: In flow cytometry, cells or beads pass a laser one at a time.
Experiment [4] deals with T2, wild type EGFR expressed on cells (CHO^EGFR, F98^EGFR) (human, UniProt P00533 25-1210).
T2 construct: whole, on cells; also called native EGFR; EGFRwt
Description: flow cytometry on F98^EGFR cells; scFv detected with anti-His followed by FITC-conj. goat anti-mouse IgG.
Description: After a second washing cycle, the cells were incubated with 0.1 mL of 15 μg/mL FITC-conjugated goat anti-mouse IgG antibodies under the same conditions as before. As a control, cells were incubated with the anti-His IgG 13/45/31 followed by the FITC-conjugated goat anti-mouse IgG antibodies without scFvs. The cells were then washed again and resuspended in 0.2 mL of FACS buffer containing 2 μg/mL propidium iodide in order to exclude dead cells. The fluorescence of 1×10⁴ living cells was measured using a Beckman-Coulter FC500 MPL flow cytometer using the MXP software (Beckman-Coulter, Krefeld, Germany) or a Millipore Guava EasyCyte flow cytometer using the Incyte software (Merck Millipore, Schwalbach, Germany). Mean fluorescence intensities of the cell samples were calculated using CXP software (Beckman-Coulter, Krefeld, Germany) or Incyte software (Merck Millipore, Schwalbach, Germany).
In case of analysis with Beckman-Coulter FC500 MPL flow cytometer 0.5×10⁶ cells/staining and in case of Millipore Guava EasyCyte flow cytometer only 0.25×10⁶ cells/staining were used.

B1: EGFRvIII/CD3 tandem diabody with parental EGFRvIII binding domain Li3G30 and CD3 domain v64, domain order (i) VL^CD3-VH^EGFRvIII-VL^EGFRvIII-VH^CD3 … (bispecific antibody, part only; not given: CD3 v64 domain and linkers, not shown: small tags and cut ends)
chain, part: EVQLVQSGAEVKKPGESLKISCKGSGYSFTSYWIGWVRQMPGKGLEWMGIIYPGDSDTRYSPSFQGQVTISADKSISTAYLQWSSLKASDTAMYYCARLGSSWTNDAFDIWGQGTMVTVSSSYELTQPPSVSVSPGQTARITCSGDALPKQYAYWYQQKPGQAPVLVIYKDSERPSGIPERFSGSSSGTTVTLTISGVQAEDEADYYCQSADSSGTPLIVFGTGTKLTVL
As for B1, the EC50 in the cytotoxicity assay (CHO^EGFRvIII target cells) in experiment [1] amounted to 0.025 nM.

B2: scFv 469 (scFv, V domains shown)
VH: EVQLVQSGAEVKKPGESLKISCKGSGYSFNSYWIGWVRQMPGKGLEWMGIIYPGDSDTRYSPSFQGQVTISADKSISTAYLQWSSLKASDTAMYYCARLGSSWTNDAFDIWGQGTLVTVSS
VL: SYELTQPPSVSVSPGQTARITCSGDTLPKQYAYWYQQKPGQAPVLVIYKDSERPSGIPERFSGSSSGTTVTLTISGVQAEDEADYYCQSVDVSGTYVVFGGGTKLTVL
notes: One-chain scFv, His-tagged
B2: in experiment [2], the “KD improvement factor vs parental scFv Li3G30” value turned out to be 10.8 fold; the Kd (usually the free concentration of one partner at which half of the binding sites on the other are occupied at equilibrium, for simple one-to-one binding) came out at 0.72 nM; the “kOFF improvement factor vs parental scFv Li3G30” value was 2 fold; the “kON improvement factor vs parental scFv Li3G30” value stood at 5.2 fold. In experiment [2], the koff (commonly the first-order rate constant of dissociation) stood at 0.0006 s⁻¹ and the on-rate constant (kon) (commonly the rate constant with which the complex forms) came to 830000 M⁻¹ s⁻¹. Moreover, the EC50 (read off the curve) (usually the concentration that produces a half-maximal response) in experiment [3] stood at 2 nM.

B3: scFv 479 (scFv, V domains shown)
VH: EVQLVQSGAEVKKPGESLKISCKGSGYDFSSYWIGWVRQMPGKGLEWMGIIYPGDSDTIYSPSFQGQVTISADKSISTAYLQWSSLKASDTAMYYCARLGSSWTNDAFDIWGQGTLVTVSS
VL: SYELTQPPSVSVSPGQTARITCSGAALPEQYAYWYQQKPGQAPVLVIYKDSERPSGIPERFSGSSSGTTVTLTISGVQAEDEADYYCQSVDSSGTFYVFGGGTKLTVL
notes: One-chain scFv, His-tagged
Consider B3, for which, in experiment [2], the “KD improvement factor vs parental scFv Li3G30” value worked out at 3.1 fold, binding was put at a Kd of 2.54 nM, the “kOFF improvement factor vs parental scFv Li3G30” value was determined as 1.3 fold and the “kON improvement factor vs parental scFv Li3G30” value was 2.4 fold. In experiment [2], this molecule came in with a koff of 0.00096 s⁻¹ and a kon of 380000 M⁻¹ s⁻¹.

B4: scFv 475 (scFv, V domains shown)
VH: EVQLVQSGAEVKKPGESLKISCKGSGYSFTSYWIGWVRQMPGKGLEWMGIIYPDDSDTRYSPSFQGQVTISADKSISTAYLQWSSLKASDTAMYYCARLGSSWTNDAFDIWGQGTLVTVSS
VL: SYELTQPPSVSVSPGQTARITCSGDALPKQYAYWYQQKPGQAPVLVIYKDTERPSGIPERFSGSSSGTTVTLTISGVQAEDEADYYCQSVDSSGTYVVFGGGTKLTVL
notes: One-chain scFv, His-tagged
Regarding B4, in experiment [2], the “KD improvement factor vs parental scFv Li3G30” value was 11.1 fold, the equilibrium dissociation constant (Kd) is 0.7 nM, the “kOFF improvement factor vs parental scFv Li3G30” value was determined as 1.5 fold and the “kON improvement factor vs parental scFv Li3G30” value is 7.5 fold. For the same molecule, in experiment [2], the off-rate constant (koff) turned out to be 0.0008 s⁻¹ and the kon stood at 1.2e+06 M⁻¹ s⁻¹. Besides, the “EC50 (read off the curve)” value in experiment [3] is about 2 nM. Besides, in experiment [4], the binding result is listed as “no binding (tested: about 3300 nM)”.

B5: scFv 471 (scFv, V domains shown)
VH: EVQLVQSGAEVKKPGESLKISCKGSGYSFNSYWIGWVRQMPGKGLEWMGIIYPGDSANRYSPSFQGQVTISADKSISTAYLQWSSLKASDTAMYYCARLGSSWTNDAFDIWGQGTLVTVSS
VL: SYELTQPPSVSVSPGQTARITCSGDYLPKQYAYWYQQKPGQAPVLVIYKDTERPSGIPERFSGSSSGTTVTLTISGVQAEDEADYYCQSVDSSHPSVVFGGGTKLTVL
notes: One-chain scFv, His-tagged
Take B5: in experiment [2], the “KD improvement factor vs parental scFv Li3G30” value amounted to 29.9 fold, the Kd turned out to be 0.26 nM, the “kOFF improvement factor vs parental scFv Li3G30” value is 4.1 fold and the “kON improvement factor vs parental scFv Li3G30” value amounted to 6.9 fold. In experiment [2], this molecule gave a koff of 0.00029 s⁻¹ and a kon of 1.1e+06 M⁻¹ s⁻¹. Also, the “EC50 (read off the curve)” value in experiment [3] was about 2 nM. Besides, the binding result in experiment [4] was “no binding (tested: about 3300 nM)”.

B6: scFv 470 (scFv, V domains shown)
VH: EVQLVQSGAEVKKPGESLKISCKGSGYSFNSYWIGWVRQMPGKGLEWMGIIYPGDSDTRYSPSFQGQVTISADKSISTAYLQWSSLKASDTAMYYCARLGSSWTNDAFDIWGQGTLVTVSS
VL: SYELTQPPSVSVSPGQTARITCSGDALDKQYAYWYQQKPGQAPVLVIYKDSERPSGIPERFSGSSSGTTVTLTISGVQAEDEADYYCQSVDSSETYVVFGGGTKLTVL
notes: One-chain scFv, His-tagged
B6: in experiment [2], the “KD improvement factor vs parental scFv Li3G30” value was 6.6 fold, binding was put at a Kd of 1.18 nM, the “kOFF improvement factor vs parental scFv Li3G30” value amounted to 2.4 fold and the “kON improvement factor vs parental scFv Li3G30” value was determined as 2.7 fold. For the same molecule, in experiment [2], the koff is 0.0005 s⁻¹ and the kon came to 430000 M⁻¹ s⁻¹. Moreover, the “EC50 (read off the curve)” value in experiment [3] was about 2 nM. The binding result in experiment [4] is reported as “no binding (tested: about 3300 nM)”.

B7: scFv 474 (scFv, V domains shown)
VH: EVQLVQSGAEVKKPGESLKISCKGSGYSFSHYWIGWVRQMPGKGLEWMGITYPGDVDTRYDPSFQGQVTISADKSISTAYLQWSSLKASDTAMYYCARLGSSWTNDAFDIWGQGTLVTVSS
VL: SYELTQPPSVSVSPGQTARITCSGDALPKTYAYWYQQKPGQAPVLVIYKDTERPSGIPERFSGSSSGTTVTLTISGVQAEDEADYYCQSADSSGTYLVFGGGTKLTVL
notes: One-chain scFv, His-tagged
With B7, in experiment [2], the “KD improvement factor vs parental scFv Li3G30” value came out at 16.3 fold, the Kd turned out to be 0.48 nM, the “kOFF improvement factor vs parental scFv Li3G30” value was 0.8 fold and the “kON improvement factor vs parental scFv Li3G30” value came out at 20.6 fold. In addition, in experiment [2], the koff stood at 0.0016 s⁻¹ and the kon turned out to be 3.3e+06 M⁻¹ s⁻¹. In experiment [3], the “EC50 (read off the curve)” value is about 2 nM. Also, in experiment [4], the binding result is given as “no binding (tested: about 3300 nM)”.

B8: scFv 473 (scFv, V domains shown)
VH: EVQLVQSGAEVKKPGESLKISCKGSGYSFSSYWIGWVRQMPGKGLEWMGIIYPGDSDTRYSPSFQGQVTISADKSISTAYLQWSSLKASDTAMYYCARLGSSWTNDAFDIWGQGTLVTVSS
VL: SYELTQPPSVSVSPGQTARITCSGHALPSQYAYWYQQKPGQAPVLVIYKDTERPSGIPERFSGSSSGTTVTLTISGVQAEDEADYYCQSVDSSGTSVIFGGGTKLTVL
notes: One-chain scFv, His-tagged
B8: in experiment [2], the “KD improvement factor vs parental scFv Li3G30” value is 11.6 fold, the Kd amounted to 0.67 nM, the “kOFF improvement factor vs parental scFv Li3G30” value stood at 1.5 fold and the “kON improvement factor vs parental scFv Li3G30” value was found to be 7.5 fold. In experiment [2], this molecule displayed a koff of 0.0008 s⁻¹ and a kon of 1.2e+06 M⁻¹ s⁻¹. Moreover, in experiment [3], the “EC50 (read off the curve)” value is about 2 nM. For the same molecule, the binding result in experiment [4] is reported as “no binding (tested: about 3300 nM)”.

B9: scFv 472 (scFv, V domains shown)
VH: EVQLVQSGAEVKKPGESLKISCKGSGYSFGYYWIGWVRQMPGKGLEWMGIIYPGDSHTRYSPSFQGQVTISADKSISTAYLQWSSLKASDTAMYYCARLGSSWTNDAFDIWGQGTLVTVSS
VL: SYELTQPPSVSVSPGQTARITCSGDALPKQYAYWYQQKPGQAPVLVIYKDTERPSGIPERFSGSSSGTTVTLTISGVQAEDEADYYCQSVDSSGTQVVFGGGTKLTVL
notes: One-chain scFv, His-tagged
For B9, in experiment [2], the “KD improvement factor vs parental scFv Li3G30” value worked out at 96.3 fold, the Kd was 0.08 nM, the “kOFF improvement factor vs parental scFv Li3G30” value was determined as 4 fold and the “kON improvement factor vs parental scFv Li3G30” value is 23.8 fold. In experiment [2], this molecule displayed a koff of 0.0003 s⁻¹ and an on-rate constant (kon) of 3.8e+06 M⁻¹ s⁻¹. Moreover, the “EC50 (read off the curve)” value in experiment [3] was about 1 nM. Besides, the binding result in experiment [4] is listed as “no binding (tested: about 3300 nM)”.

The values above are taken from US20160152728A1 (AFFEMED, published 2016).
